Like-named read-outs stand apart in the source and are kept apart here.
Key:
[1] = molecular target: Pin1 WW domain (Homo sapiens, UniProt Q13526); conditions: For eWW (Pin1 WW); read-out: Affinity if known; cited from earlier work
[2] = molecular target: T1, Grb2-SH2 domain (Homo sapiens, UniProt P62993); conditions: For eSH2 (Grb2); read-out: Affinity if known; cited from earlier work
T1 construct: The SH2 domain of Grb2 (“Grb2-SH2” hereafter) is ˜98 residue autonomously folded domain

[3] = molecular target: T2, Ala-substituted ARVCF peptide (positions −7 to −4) (Homo sapiens, UniProt O00192, V958A); assay: Alanine-scanning of the ARVCF peptide by SPR; type: binding; conditions: ARVCF peptide mutant
T2 construct: The tested positions are −7 to −4 in the ARVCF peptide (PQPVDSWV-COOH; mutated positions are underlined); yeast SUMO (N)
Method: (§1) To complement the library sorting experiments described above, Ala-scanning experiments of the ARVCF peptide were performed. When the goal is to define differences in the ability of ePDZ-a and ePDZ-b1 to recognize the differences between the ARVCF and δ-catenin peptides, only those positions that differ between the two peptides are analyzed.
(§2) Consistent with the peptide library sorting results, the ePDZ-b family was sensitive to Ala substitution mutations at all positions between −4 and −7. […] The results are shown in terms of changes in free energy change (ΔG=−RT ln(Kd^mutant/Kd^wild type)). […] The tested positions are −7 to −4 in the ARVCF peptide (PQPVDSWV-COOH; mutated positions are underlined). For each mutant, binding affinity was determined using surface plasmon resonance as described previously for the wild-type ARVCF peptide (69).

[4] = molecular target: T3, ARVCF peptide (PQPVDSWV-COOH) (Homo sapiens, UniProt O00192); assay: Surface plasmon resonance (SPR, BIAcore) analysis of motif binding, ARVCF peptide; conditions: for koff / kon: for the ARVCF peptide; for Affinity Enhancement: ratio of Kd of parent protein (cpPDZFN) for ARVCF to that of the affinity clamp
T3 construct: made in house; host or cells: E. coli
Excerpt: (§3) Using semi-automated methods, the phage display library was sorted using an eight-residue motif (SEQ ID NO: 148) corresponding to the ARVCF C-terminus. […] The maximal motif/affinity concentrations are indicated. In B, C and F, the on and off rates are also shown on the left and right sides, respectively. […] After four rounds of sorting, two clones with high affinity were identified to the ARVCF peptide motif. ePDZ-a (SEQ ID NO: 149) and ePDZ-b (SEQ ID NO: 150) are thus (referred to as “enhanced PDZ-a” and “enhanced PDZ-b” or simply “ePDZ-a” and “ePDZ-b” respectively) potential affinity clamp candidates.
These two clones were characterized as soluble proteins.
One method to improve affinity of the affinity clamp is to improve the interaction interface of the enhancer domain (e.g. the FN3 domain). […] The two second-generation variants, ePDZ-b1 (SEQ ID NO: 151) and ePDZ-b2 (SEQ ID NO: 143), were prepared as protein samples and their binding properties were analyzed using SPR. […] The affinity enhancement primarily originated from reduced dissociation rates.
A disulfide-constrained peptide was used as an enhancer domain. A peptide-PDZ affinity clamp was designed in which the diversified peptide segment was N-terminal connected to the circularly permutated PDZ domain (cpPDZ) described above. (See, FIG. F1 showing an affinity clamp constructed with Cys-constrained peptide as an enhancer domain in which (A) is a schematic drawing of the affinity clamp. Note that the peptide is attached to the N-terminus of the interaction domain. (B, C) are saturation curves of the parent PDZ (B) and peptide-PDZ Affinity Clamp (C) determined using surface plasmon resonance (SPR). SPR experiments were performed in the equilibrium mode, and the SPR response is plotted as a function of the concentration of the target peptide. The target peptide fused to the yeast SUMO protein was used in these measurements. The curves show the best fit of the 1:1 binding model to the data. The Kd values are also shown.)

[5] = molecular target: T4, δ-catenin peptide (PASPDSWV-COOH) (Homo sapiens, UniProt Q9UQB3); assay: Surface plasmon resonance (SPR, BIAcore) analysis of motif binding, δ-catenin peptide; conditions: for Kd: SPR; for Specificity Index: ratio of Kd for δ-catenin to Kd for ARVCF
T4 construct: yeast SUMO (N); made in house
Excerpt: as §3
The binding specificity of the ePDZ clones was investigated. In addition to the ARVCF motif, wild-type erbin PDZ also binds to the C-terminus of δ-catenin with a low μM Kd. The two sequences differ only at positions outside the core recognition motif, DSWV (SEQ ID NO: 69) —COOH (Table 2). The affinity enhancement of ePDZ-a was similar for both targets. Remarkably, the ePDZ-b clone had very weak binding to δ-catenin, similar to the wild-type PDZ domain, showing that ePDZ-b discriminates between the two targets by ˜200 fold. Equally importantly, ePDZ-b discriminates amino acids outside the DSWV-COOH motif shared by the two peptides (Table 2), and thus, it expanded the size of the target motif. The improved specificity is consistent with the molecular affinity clamp design where the enhancer domain binds to the motif surface presented on the PDZ domain and thus can “read” the motif sequence (FIG. C2).

[6] = system: ARVCF target peptide (SUMO fusion) in E. coli lysate; assay: Pull-down (immunoprecipitation) with biotinylated ePDZ's and streptavidin magnetic beads; type: binding; conditions: biotinylated clamp, streptavidin magnetic beads, E. coli lysate/cell extracts
Excerpt: (§4) The PDZ-FN3 affinity clamps functioned well in Western blotting and in immunoprecipitation (pull down) assays. […] Lane 6 is a negative control for the secondary, anti-FLAG antibody. In FIG. C6B, pull-down (immunoprecipitation), biotinylated ePDZ's and streptavidin (SA)-magnetic beads were used. The input (I), unbound (U), wash (W) and bound (B) fractions were separated with SDS-PAGE and detected with CBB. Note that this is not Western blotting, which would have given higher sensitivity and specificity. […] Note that most of nonspecific binding is due to the SA-magnetic beads (lane 13). […] It is noted that the relatively low recovery of the target in the pull-down assays may be due to the fact that the off-rate was optimized for these clamps (FIG. C3).
These Kd values and dissociation rates compare favorably to those for monoclonal antibodies. The reduced dissociation rate of an affinity clamp improves its usefulness in immunochemical applications.

[7] = molecular target: T5, ARVCF (Homo sapiens, UniProt O00192); assay: Western blotting of ARVCF in mammalian cell lysate; type: binding; conditions: vs commercial monoclonal antibody
T5 construct: host or cells: mammalian cell lysate
T5 sequence (O00192 1-962): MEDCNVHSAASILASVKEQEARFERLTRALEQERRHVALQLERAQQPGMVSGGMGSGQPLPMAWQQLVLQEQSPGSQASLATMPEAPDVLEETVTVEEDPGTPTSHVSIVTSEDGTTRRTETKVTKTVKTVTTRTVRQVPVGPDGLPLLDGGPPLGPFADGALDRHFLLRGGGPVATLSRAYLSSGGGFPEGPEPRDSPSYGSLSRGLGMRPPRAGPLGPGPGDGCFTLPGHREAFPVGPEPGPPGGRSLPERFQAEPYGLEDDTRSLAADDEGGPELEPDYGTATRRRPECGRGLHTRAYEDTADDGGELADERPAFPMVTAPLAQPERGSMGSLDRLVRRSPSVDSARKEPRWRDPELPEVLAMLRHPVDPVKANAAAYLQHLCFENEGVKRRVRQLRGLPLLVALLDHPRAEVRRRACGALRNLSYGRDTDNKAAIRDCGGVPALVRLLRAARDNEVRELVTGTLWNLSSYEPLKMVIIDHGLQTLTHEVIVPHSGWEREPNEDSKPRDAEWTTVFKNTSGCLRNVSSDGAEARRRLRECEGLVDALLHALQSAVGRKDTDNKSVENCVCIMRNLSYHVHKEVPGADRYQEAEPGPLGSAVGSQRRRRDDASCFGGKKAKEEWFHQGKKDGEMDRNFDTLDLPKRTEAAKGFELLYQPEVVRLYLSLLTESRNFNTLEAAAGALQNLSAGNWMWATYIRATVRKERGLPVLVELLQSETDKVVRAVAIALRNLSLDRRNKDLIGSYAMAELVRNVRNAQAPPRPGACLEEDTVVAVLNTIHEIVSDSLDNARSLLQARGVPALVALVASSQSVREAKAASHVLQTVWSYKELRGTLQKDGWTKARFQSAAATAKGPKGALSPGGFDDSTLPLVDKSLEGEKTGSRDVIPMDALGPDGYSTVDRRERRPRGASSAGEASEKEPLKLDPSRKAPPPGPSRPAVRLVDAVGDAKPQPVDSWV

[8] = system: SUMO-ARVCF fusion protein; assay: Western blotting of SUMO-ARVCF fusion protein in E. coli lysate; type: binding; conditions: E. coli lysate containing 5 nanograms SUMO-ARVCF
Excerpt: as §4

[9] = molecular target: T6, ARVCF peptide (Homo sapiens, UniProt O00192); assay: IC50 for the ARVCF peptide (Table 4); type: binding
T6 construct: made in house; host or cells: E. coli

[10] = system: Ala-substituted ARVCF peptide (positions −7 to −4); assay: Alanine-scanning of the ARVCF peptide by SPR; type: binding; conditions: positions −7 to −4
Method: as §1, §2

[11] = Table 4, SPR, read-out: Kd [nM] ARVCF
[12] = Table 4, read-out: Kd [nM] δ-catenin
[13] = Table 2, SPR, read-out: Kd, ARVCF PQPVDSWV
[14] = Table 2, read-out: Kd, δ-catenin PASPDSWV

Pin1 WW domain, sequence (Q13526 5-39 limits assumed): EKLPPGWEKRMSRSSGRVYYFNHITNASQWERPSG
T1 sequence (P62993 60-152 limits assumed): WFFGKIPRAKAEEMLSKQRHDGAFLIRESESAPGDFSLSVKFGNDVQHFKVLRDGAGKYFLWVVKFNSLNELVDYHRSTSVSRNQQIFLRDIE

## LYRpSPS [Cdc25c-S214]
[1]
  Kd: 72 µM

## PPApTPP [Myt1-T412]
[1]
  Kd: 15 µM

## PSpYVNVQN [SHC (control)]
[2]
  Kd: 0.018 µM

## SPQPEpYVNQPDVR [ErbB2 pY1139]
[2]
  Kd: 0.076 µM

## STSpTPR [Myt1-T455]
[1]
  Kd: 40 µM

## VNATpYVNVKCVA [c-MET pY1356]
[2]
  Kd: 0.2 to 1 µM

## VPRpTPV [Cdc25c-T48]
[1]
  Kd: 8 µM

## YSPTpSPS [Polll-CTD-S5]
[1]
  Kd: 34 µM

## ePDZ-b1: second-generation affinity-matured variant of ePDZ-b, SEQ ID NO: 151 (HYNYHYYS)
[3]
  reduction in affinity on Ala substitution at position −4: over 200 fold
[4]; [11]
  Kd: 5 nM
[4]; SPR
  koff: <3.7 × 10^−4 S^−1
  kon: 7.3 × 10^4 M^−1S^−1
[4]
  Affinity Enhancement: 4960
[5]; [12]
  Kd: > 10000 nM
[5]
  Specificity Index: >2000

## ePDZ-b2: second-generation affinity-matured variant of ePDZ-b, SEQ ID NO: 143 (SYYGVS)
[6]
  capture of target in pull-down (immunoprecipitation): captured a target peptide from E. coli lysate in a highly specific and quantitative manner
[7]
  performance in Western blotting: superior to that of a commercially available monoclonal antibody
[4]; [11]
  Kd: 4 nM
[4]; SPR
  koff: <2.9 × 10^−4 S^−1
  kon: 7.0 × 10^4 M^−1S^−1
[4]
  Affinity Enhancement: 6200
[5]; [12]
  Kd: > 10000 nM
[5]
  Specificity Index: >2500

## wt-PDZ: wild-type PDZ domain of Erbin (SEQ ID NO: 146) (YYDSHVS) [reference compound]
[4]; SPR
  dissociation rate (in words): too fast to measure
[4]; [13]
  Kd: ~10000 nM
[5]
  discrimination between ARVCF peptide and δ-catenin peptide: almost equally
[8]
  detection of target in Western blotting: did not

B1: ePDZ-b: affinity clamp: circularly permutated erbin PDZ fused to engineered FN3, SEQ ID NO: 150, selected for ARVCF peptide (protein)
chain: MKHHHHHHHHHHSSDYKDDDDKGENLYFQGSPELGFSISGGVGGRGNPFRPDDDGIFVTRVQPEGPASKLLQPGDKIIQANGYSFINIEHGQAVSLLKTFQNTVELIIVREVGNGAKQEIRVRVEKDGGSGGVSSVPTNLEVVAATPTSLLISWDAYYDSHVSYYRITYGETGGNSPVQEFTVPGSKSTATISGLKPGVDYTITVYAHYNYHYYSSPISINYRT
[4]; [13]
  Kd: 56 nM
[4]; [11]
  Kd: 56 nM
[4]; SPR
  koff: 1.1 × 10^−2 S^−1
  kon: 1.9 × 10^5 M^−1S^−1
[4]
  Affinity Enhancement: 520
[5]
  discrimination between ARVCF peptide and δ-catenin peptide: ~200 fold
  Specificity Index: >178
[5]; [14]
  Kd: > 10000 nM
[5]; [12]
  Kd: > 10000 nM
[8]
  detection of target in Western blotting: detected the target
[9]
  IC50: 0.059 µM

B2: circularly permutated PDZ domain: erbin PDZ with original termini joined by Asn-Gly linker, new termini between residues 20 and 21 (protein)
chain: PELGFSISGGVGGRGNPFRPDDDGIFVTRVQPEGPASKLLQPGDKIIQANGYSFINIEHGQAVSLLKTFQNTVELIIVREVGNGAKQEIRVRVEKD
[4]; SPR equilibrium mode, target peptide fused to yeast SUMO, read-out: dissociation constant (Kd), ARVCF peptide
  Kd: 11000 ± 700 nM

B3: ePDZ-a: affinity clamp: circularly permutated erbin PDZ fused to engineered FN3, SEQ ID NO: 149, selected for ARVCF peptide (protein)
chain: MKHHHHHHHHHHSSDYKDDDDKGENLYFQGSPELGFSISGGVGGRGNPFRPDDDGIFVTRVQPEGPASKLLQPGDKIIQANGYSFINIEHGQAVSLLKTFQNTVELIIVREVGNGAKQEIRVRVEKDGGSGGVSSVPTNLEVVAATPTSLLISWDASYYGVSYYRITYGETGGNSPVQEFTVPYSSSTATISGLKPGVDYTITVYAYSDYYGSHHYSPISINYRT
[10]
  sensitivity to Ala substitutions of the ARVCF peptide: much less sensitive to the Ala substitutions
[4]; [13]
  Kd: 56 nM
[4]; [11]
  Kd: 56 ± 6 nM
[4]; SPR
  koff: 1.5 × 10^−2 S^−1
  kon: 2.9 × 10^5 M^−1S^−1
[4]
  Affinity Enhancement: 520
[5]; [14]
  Kd: 430 nM
[5]; [12]
  Kd: 429 nM
[5]
  Specificity Index: 8
[8]
  detection of target in Western blotting: detected the target
[9]
  IC50: 0.04 µM
